We go through 40 sequences from the nanobody polyreactivity screen of Harvey et al. (2022).

A short description of this data set: yeast display, Sf9 membrane polyspecificity reagent, FACS + sequencing; frameworks hold sequencing errors. The method, boiled down: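 Galactose induction of a Saccharomyces cerevisiae BJ5465 synthetic nanobody display library ran 36–48 hours. The cells were then stained for 1 hour at 4 °C with 10% biotinylated, detergent-solubilized Sf9 membrane reagent, pulled down on streptavidin microbeads and FACS-sorted into low and high (top ~1%) gates on expression and reagent-binding fluorescence. Labels for polyreactivity follow the gate of origin.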
With “QVQLVESGGGLVQAGGSLRLSCAASGRTFVQNAMGWYRQAPGKERELVASIRYRDGSTYYADSVKGRFTISRDNAKNTVYLQMNSLKREDTAVYYCAVRIGARGRGGKDRVYYWGQGTQVTVSS”, the “polyreactivity (PSR sort gate)” value is on record as “high polyreactivity”.

In the case of “QVQLVESGGGLVQAGGSLRLSCAASGRTFVRYAMGWYRQAPGKEREFVAAITGSGGITYYADSVKGRFTISRDNAKNTVYLQMNSLKPEDTAVYYCAARGGFGRYWYDYWGQGTQVTVSS”, the “polyreactivity (PSR sort gate)” value is “high polyreactivity”.

For the sequence “QVQLVESGGGLVQAGGSLRLSCAASGRTFVRYAMGWYRQAPGKERELVAAISWSGATTYYADSVKGRFTISRDNAKNTVYLQMNSLKPEDTAVYYCAARFRRGITYEYWGQGTQVTVSS”, the “polyreactivity (PSR sort gate)” value was “high polyreactivity”.

Turning to “QVQLVESGGGLVQAGGSLRLSCAASGRTFVRYTMGWYRQAPVKERELVATISYNGGRTYYADSVKGRFTISRDNAKNTVYLQMNSLKPEDTAVYYCATRLPKSSLHDYWGQGTQVTVSS”, the “polyreactivity (PSR sort gate)” value is given as “high polyreactivity”.

Regarding “QVQLVESGGGLVQAGGSLRLSCAASGRTFVSNAMGWYRQAPGKERELVARITGSGGTTYYADSVKGRFTISRDNAKNTVYLQMNSLKPEDTAVYYCNADVFRKFGSPSAYKSHRYDYWGQGTQVTVSS”, the “polyreactivity (PSR sort gate)” value was “low polyreactivity”.

On to “QVQLVESGGGLVQAGGSLRLSCAASGRTFVSYAMGWYRQAPGKERELVATITGSTGGTYYADSVKGRFTISRDNAKNTVYLQMNSLKPEDTAVYYCNKDYYYNPGNVASGYDYWGQGTQVTVSS”, for which the “polyreactivity (PSR sort gate)” value is recorded as “low polyreactivity”.

On to “QVQLVESGGGLVQAGGSLRLSCAASGRTFVSYVMGWYRQAPGKERELVAAIDQSGDRTYYPDSVKGRFTISRDNAKNTVYLQMNSLKPEDTAVYYCASRWGYSSRPYYYWGQGTQVTVSS”, for which the “polyreactivity (PSR sort gate)” value is listed as “high polyreactivity”.

In the case of “QVQLVESGGGLVQAGGSLRLSCAASGRTFVTNAMGWSRQAPGKERELVAAISSGDRTYYADSVKGRFTISRDNAKNTVYLQMNSLKPEDTAVYYCAKVSRRGIVGYWGQGTQVTVSS”, the “polyreactivity (PSR sort gate)” value is “high polyreactivity”.

For “QVQLVESGGGLVQAGGSLRLSCAASGRTFVTNAMGWYRQAPGKETELVAAISGTGGSTYYADSVKGRFTISRDNAKNTVYLQMNSLKPEDTAVYYCAAQKWRRGRYRDTAGPLFAYDYWGQGTQVTVSS”, the “polyreactivity (PSR sort gate)” value is listed as “low polyreactivity”.

Regarding “QVQLVESGGGLVQAGGSLRLSCAASGRTFVTYTMGWYRPAPGKERELVAAISRDGRTYYADSVKGRFTISRDNAKNTVYLQMNSLKPEDTAVYYCATRYKSPSFDYWGQGTQVTVSS”, the “polyreactivity (PSR sort gate)” value is “high polyreactivity”.

In the case of “QVQLVESGGGLVQAGGSLRLSCAASGRTFVVYAMGWYRQAPGKERELVAAITSSGNTYYADSVKGRFTISRDNAKNTVYLQMNSLKPEDTAVYYCAAYSLYGYDYWGQGTQVTVSS”, the “polyreactivity (PSR sort gate)” value is recorded as “low polyreactivity”.

For “QVQLVESGGGLVQAGGSLRLSCAASGRTFVWNAMGWYRQAPGKERELVAAISSSGGSTYYADSVKGRFTISRDNAKNTVYLQMNSLKPEDTAVYYCAARRASGFDWGQGTQVTVSS”, the “polyreactivity (PSR sort gate)” value is recorded as “high polyreactivity”.

Regarding “QVQLVESGGGLVQAGGSLRLSCAASGRTFVWNAMGWYRQAPGTERELVAAITSGGSTNYADSVKGRFTISRDNAKNTVYLQMNSLIPEDTAVYYCGAVWQYSPRMDYWGQGTQVTVSS”, the “polyreactivity (PSR sort gate)” value is on record as “low polyreactivity”.

In the case of “QVQLVESGGGLVQAGGSLRLSCAASGRTFVWYVMGWYRQAPGKERELVAAISLRGGTTYYADSVKGRFTISRDNAKNTVYLQMNSLKPEDTAVYYCAIAGIRHVTSKFKGYHFGYWGQGTQVTVSS”, the “polyreactivity (PSR sort gate)” value is “low polyreactivity”.

For the sequence “QVQLVESGGGLVQAGGSLRLSCAASGRTFVYKAMGWYRQSPGKERELVAALDGGGDRTYYADSVKGRFTISRDNAKNTVYLQMNSLKPEDTAVYYCARDPGDTYYYSYPEGDYWGEGTQVTVSS”, the “polyreactivity (PSR sort gate)” value is given as “low polyreactivity”.

For “QVQLVESGGGLVQAGGSLRLSCAASGRTFVYYAMGWYRQAPGKEREFVATITSSGGSTYYADSVKGRFTISRDNAKNTVYLQMNSLKPEDTAVYYCAASPYIRYSKVSKYYYWGQGTQVTVSS”, the “polyreactivity (PSR sort gate)” value was “high polyreactivity”.

As to “QVQLVESGGGLVQAGGSLRLSCAASGRTFVYYAMGWYRQAPGKERELVASISSVGTTKYADSVKGRFTISRDNAKNTVYLQMNSLKPEDTAVYYCAAVPLSRNIFDSWGQGTQVTVSS”, the “polyreactivity (PSR sort gate)” value was “low polyreactivity”.

For the sequence “QVQLVESGGGLVQAGGSLRLSCAASGRTFWAYAMGWYRQAPGKERELVAAISVSGGRTYYADSVKGRFTISRDNAKYTVYLQMNSLKPEDSAVYYCNKRYLKSYQYYWGQGSQVTVSS”, the “polyreactivity (PSR sort gate)” value is listed as “high polyreactivity”.

“QVQLVESGGGLVQAGGSLRLSCAASGRTFWAYAMGWYRQAPGKERELVAVIRGSGNTYYADSVKGRFTISRDNAKNTVYLQMNSLKPEDTAVYYCAASRAVTQYSGGGYWGQGTQVTVSS”: the “polyreactivity (PSR sort gate)” value was “high polyreactivity”.

In the case of “QVQLVESGGGLVQAGGSLRLSCAASGRTFWDYGMGWYRQAPGKERELVATISGNGGDTYYADSVKGRFTISRDNAKNTVYLQMNSLKPEDTAVYYCAADYRFYRTDRHYDYWGQGSQVTVSS”, the “polyreactivity (PSR sort gate)” value is recorded as “low polyreactivity”.

Regarding “QVQLVESGGGLVQAGGSLRLSCAASGRTFWENAMGWYRQAPGKERELVAAISGDSGSTYYADSVKGRFTISRDNAKNTVYLQMNSLKPEDTAVYYCAADSDRDDSYPYYYWGQGTQVTVSS”, the “polyreactivity (PSR sort gate)” value is “low polyreactivity”.

Turning to “QVQLVESGGGLVQAGGSLRLSCAASGRTFWGNAMGWYRQAPGKERELVAAIRRGGRTNYADSVKGRFTISRDNAKNTVYLQMNSLKPEDTAVYYCNALYAWSWPRGYDYWGQGTQVTVSS”, the “polyreactivity (PSR sort gate)” value was “high polyreactivity”.

For the sequence “QVQLVESGGGLVQAGGSLRLSCAASGRTFWGYGMGWYRQAPGKERELVATISSGGSTYYADSVKGRFTISRDNAKNTVYLQMNSLKPEDTAVYYCAARPPRTYWRYQSDYWGQGTQLTVSS”, the “polyreactivity (PSR sort gate)” value was “high polyreactivity”.

As to “QVQLVESGGGLVQAGGSLRLSCAASGRTFWGYPMGWYRQAPGKERELVAAISSGGSTHYADSVKGRFTISRDNAKNTVYLQMNSLKPEDTAVYYCAAAVGYYAFGTYPFDDWPYDYWGQGTQVTVSS”, the “polyreactivity (PSR sort gate)” value is given as “high polyreactivity”.

Take “QVQLVESGGGLVQAGGSLRLSCAASGRTFWKYAMGWSRQAPGKERELVAAITDDDSTDYADSVKGRFTISRDNAKNTVYLQMTRLKPEDTAVYYCNADSSRYYRALEYWGQGTQVTVSA”: the “polyreactivity (PSR sort gate)” value was “low polyreactivity”.

Regarding “QVQLVESGGGLVQAGGSLRLSCAASGRTFWNYAMGWYRQAPGKERELVAVIRFSDGSTYYADSVKGRFTISRDNAKNTVYLQMNSLKPEDTAVYYCAAKGPRRWGSGFDYWGQATQVTVSS”, the “polyreactivity (PSR sort gate)” value is reported as “low polyreactivity”.

Regarding “QVQLVESGGGLVQAGGSLRLSCAASGRTFWNYSMGWYRQAPGKERELVAVIRFSDGSTYYADSVKGRFTISRDNAKNTVYLQMNSLKPEDTAVYYCAADYSLYGWWFRNDYWGQGTQVTVSS”, the “polyreactivity (PSR sort gate)” value is given as “low polyreactivity”.

Take “QVQLVESGGGLVQAGGSLRLSCAASGRTFWPYAMGWYRQAPGKERELVAAINWGGGSTYYADSVKGRFTISRDNAKNTVYLQMNSLKPEDTAVYYCAADVGRNKMDYWGQGTQVTVSS”: the “polyreactivity (PSR sort gate)” value is recorded as “low polyreactivity”.

Consider “QVQLVESGGGLVQAGGSLRLSCAASGRTFWPYAMGWYRQAPGKERELVARITASGGRTYYADSVKWRFTISRDNAKNTVYLQMNSLKPEDTAVYYCATSYSTRIWTWRAGDYWGQGSQVTVSS”, for which the “polyreactivity (PSR sort gate)” value is listed as “high polyreactivity”.

For “QVQLVESGGGLVQAGGSLRLSCAASGRTFWRNAMGWYRQAPGKERELVAAISSSGDRTYYADSVKGRFTISRDNANNTVYLQMNSLKPEDTAVYYCAADVRYSSRFYYWGQGTQVTVSS”, the “polyreactivity (PSR sort gate)” value was “high polyreactivity”.

On to “QVQLVESGGGLVQAGGSLRLSCAASGRTFWRNAMGWYRQAPGKERELVAVISVRGSSTSYADSVKGRFTISRDNAKNTVYLQMNSLKPEDTAVYYCNKASRTYGTGYDYWGQGTQVTVSS”, for which the “polyreactivity (PSR sort gate)” value was “high polyreactivity”.

As for “QVQLVESGGGLVQAGGSLRLSCAASGRTFWSNAMGSYRQAPGKERELVAAINTSGGNTYYADSVKGRFTISRDNAKNTVYLQMNSLKPEDTAVYFCNTDGLVRNGPFYSWGQGTQVTVSS”, the “polyreactivity (PSR sort gate)” value was “low polyreactivity”.

For “QVQLVESGGGLVQAGGSLRLSCAASGRTFWSNDMGWYRQAPGKEREFVAVISRSGSTTYYADSVKGRFTISRDNAKNTVYLQMNSRKPEDTAVYYCAADRVRSYFSRYYSTPLDYYLGQGTQVTVSS”, the “polyreactivity (PSR sort gate)” value is reported as “high polyreactivity”.

“QVQLVESGGGLVQAGGSLRLSCAASGRTFWSYAMGWYRQAPGKERELVAAIRTSDGITYYADSVKGRFTISRDNAKNTVYLQMNSLKPEDTAVYYCARDIRQYILYGRGDYWGQGTQVTVSS”: the “polyreactivity (PSR sort gate)” value was “low polyreactivity”.

On to “QVQLVESGGGLVQAGGSLRLSCAASGRTFWTNAMGWYRQAPGKERELVAAIDRSSTSTYYADSVKGRFTISRDNAKNTVYLQMNSLKPEDTAVYYCAAENPVIVETPYGGFVGKGDSWGQGTQVTVSS”, for which the “polyreactivity (PSR sort gate)” value is given as “low polyreactivity”.

As to “QVQLVESGGGLVQAGGSLRLSCAASGRTFWTYTMGWYRQAPGKERELVAAISYSGSRTYYADSVKGRFTISRDNAKNTVYLQMNSQKPEETAVYYWATDDSDYLYRTVSAWEYDYWGQGTQVTVSS”, the “polyreactivity (PSR sort gate)” value is reported as “low polyreactivity”.

Regarding “QVQLVESGGGLVQAGGSLRLSCAASGRTFWYNAMGWYRQAPRKERELVAAISSGSSTKYADSVKGRFTISRDNAKNTVYLQMNSLKPEDTAVYYCARGGWAYCPRYNYWGQGTQVTVSS”, the “polyreactivity (PSR sort gate)” value is on record as “high polyreactivity”.

With “QVQLVESGGGLVQAGGSLRLSCAASGRTFWYSAMGWYRQAPGKEREFVAAISWSGGSTYYADSVKGRFTISRDNAKNTVYLQMNSLKPEDTAVYYCAADRYDSSQFYYWGQGTQVTVSS”, the “polyreactivity (PSR sort gate)” value is “low polyreactivity”.

With “QVQLVESGGGLVQAGGSLRLSCAASGRTFWYYAMGWSRQAPGKERELVATITSGGSTYYADSVKGRFTISRDNAKNTVYLQMNSLKPEDTAVYYCAARKYYSRAYDYWGQGTQVTVSS”, the “polyreactivity (PSR sort gate)” value was “high polyreactivity”.

Take “QVQLVESGGGLVQAGGSLRLSCAASGRTFWYYAMGWYRQAPGKEREFVAAISWSGGSTYYADSVKGRFTISRDNAKNTVYLQMNSLKPEDTAVYYCAADGYDSSQFYYWGQGTQVTVSS”: the “polyreactivity (PSR sort gate)” value is “low polyreactivity”.
